Test results reported in patent US20250352661A1 (MYTHIC THERAPEUTICS, published 2025).
Changes are numbered by the printed parent chain. In names and notes the source's numbering stands.

T1: LRRC15 on the surface of LRRC15+ cells (SAOS-2, U87MG) (UniProt Q8TF66 22-581, limits assumed)
T1 sequence (looked up): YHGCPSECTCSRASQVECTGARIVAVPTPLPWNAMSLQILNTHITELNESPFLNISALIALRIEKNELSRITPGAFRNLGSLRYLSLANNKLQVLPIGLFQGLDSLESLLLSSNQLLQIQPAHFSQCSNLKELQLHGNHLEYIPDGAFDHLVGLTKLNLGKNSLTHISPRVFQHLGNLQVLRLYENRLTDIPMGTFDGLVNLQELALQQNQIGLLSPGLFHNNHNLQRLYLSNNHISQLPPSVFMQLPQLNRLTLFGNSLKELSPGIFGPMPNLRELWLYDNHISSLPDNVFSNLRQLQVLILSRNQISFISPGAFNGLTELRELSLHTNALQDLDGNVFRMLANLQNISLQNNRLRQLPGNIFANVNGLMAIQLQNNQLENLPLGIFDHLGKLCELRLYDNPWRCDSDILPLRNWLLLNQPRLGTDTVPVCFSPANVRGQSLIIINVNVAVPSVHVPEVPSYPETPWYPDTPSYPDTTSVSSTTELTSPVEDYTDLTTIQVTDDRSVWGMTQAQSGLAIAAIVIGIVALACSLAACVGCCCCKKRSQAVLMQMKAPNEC

T2: Human LRRC15 Protein, His Tag (Acro Biosystems) (human, UniProt Q8TF66 22-538, limits assumed)
T2 construct: Bought protein with His tag
T2 sequence (looked up): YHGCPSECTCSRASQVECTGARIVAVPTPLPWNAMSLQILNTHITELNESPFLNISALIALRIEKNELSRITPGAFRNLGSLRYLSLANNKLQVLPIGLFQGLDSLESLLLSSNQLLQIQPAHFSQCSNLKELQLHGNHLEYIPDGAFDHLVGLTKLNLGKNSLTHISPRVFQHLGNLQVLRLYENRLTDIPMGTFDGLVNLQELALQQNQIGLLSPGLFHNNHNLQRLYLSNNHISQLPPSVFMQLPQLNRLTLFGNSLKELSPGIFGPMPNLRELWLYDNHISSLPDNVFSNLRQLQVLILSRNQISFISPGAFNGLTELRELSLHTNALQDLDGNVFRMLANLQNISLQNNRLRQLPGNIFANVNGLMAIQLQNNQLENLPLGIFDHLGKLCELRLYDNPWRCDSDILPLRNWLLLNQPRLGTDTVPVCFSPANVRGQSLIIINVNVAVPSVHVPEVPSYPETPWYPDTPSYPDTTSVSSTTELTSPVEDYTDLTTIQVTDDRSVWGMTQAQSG

B1: MYT9507 (antibody, V domains shown)
VH: EVQLVESGGGLVQPGGSLRLSCTASGFSFSSSHWICWVRQAPGKGLEWVGCIYAGSIGSTYYASWAKGRFTISRDTSKNTVYLQMNSLRAEDTAVYYCARAPNDIYNYYFNLWGQGTLVTVSS
VL: EIVMTQSPSTLSASVGDRVIITCDASENIYNYLAWYQQKPGKAPKLLIYYASTLASGVPSRFSGSGSGAEFTLTISSLQPDDFATYYCQSGYVSKSSTFGQGTKLTVL
B2: MYT9523 (antibody, V domains shown)
VH: B1 VH
VL: B1 VL with D24Q, A55D
B3: MYT2737 (antibody, V domains shown)
VH: EVQLVQSGAEVKKPGASVKVSCKASGYKFSSYWIEWVKQAPGQGLEWIGEILPGSDTTNYNEKFKDRATFTSDTSINTAYMELSRLRSDDTAVYYCARDRGNYRAWFGYWGQGTLVTVSS
VL: DIQMTQSPSSLSASVGDRVTITCRASQDISNYLNWYQQKPGGAVKFLIYHTSRLHSGVPSRFSGSGSGTDYTLTISSLQPEDFATYFCQQGEALPWTFGGGTKVEIK
B4: MYT8417 (antibody, V domains shown)
VH: EVQLVESGGGLVQPGGSLRLSCTASGLDFRRTNYICWVRQAPGKGLEWVGCIYIADVVHYYASWAKGRFTFSRDTSKNTVYLQMNSLRAEDTAVYYCARGADGGFVYGMDLWGQGTLVTVSS
VL: EIVMTQSPSTLSASVGDRVIITCQASQSIGNYLSWYQQKPGKAPKRLIYSASTLPSGVPSRFSGSGSGAEFTLTISSLQPDDFATYYCQNNYWLAHYGHPFGQGTKLTVL
B5: MYT8483 (antibody, IgG1, V domains shown)
VH: EVQLVESGGGLVQPGGSLRLSCTASGFSFSGSYWICWVRQAPGKGLEWVGCINGGSLDITYYASWAKGRFTISRDTSKNTVYLQKTSLRAEDTAVYYCASDTSYTAYGNFYFNLWGQGTLVTVSS
VL: EIVMTQSPSPLSASVGDRVIITCQSSQSVLNNNWLAWYQQKPGKAPKLLIYDASSLASGVPSRFSGSGSGAEFTLTISSLQPDDFATYYCQGEFSCGSADCNAFGQGTKLTVL
B6: MYT8413 (antibody, V domains shown)
VH: B4 VH
VL: B4 VL with G30H, H96G
notes: hu15G7 VL G30H; human Fc
B7: MYT8426 (antibody, V domains shown)
VH: B4 VH
VL: B4 VL with Y92H
notes: hu15G7 VL Y92H, G96H; human Fc
B8: MYT8427 (antibody, V domains shown)
VH: B4 VH
VL: B4 VL with W93H
notes: hu15G7 VL W93H, G96H; human Fc
B9: MYT8418 (antibody, V domains shown)
VH: B4 VH
VL: B4 VL with G30H, Y32H, H96G
notes: hu15G7 VL G30H, Y32H; human Fc
B10: MYT8431 (antibody, V domains shown)
VH: B4 VH
VL: B4 VL with G30H, Y92H, W93H, H96G
notes: hu15G7 VL G30H, Y92H, W93H; human Fc
B11: MYT8423 (antibody, V domains shown)
VH: B4 VH
VL: B4 VL with Y32H, W93H, H96G
notes: hu15G7 VL Y32H, W93H; human Fc
B12: MYT8425 (antibody, V domains shown)
VH: B4 VH
VL: B4 VL with Y92H, W93H, H96G
notes: hu15G7 VL Y92H, W93H; human Fc
B13: MYT8420 (antibody, V domains shown)
VH: B4 VH
VL: B4 VL with G30H, W93H, H96G
notes: hu15G7 VL G30H, W93H; human Fc
B14: MYT8429 (antibody, V domains shown)
VH: B4 VH
VL: B4 VL with G30H, Y32H, W93H, H96G
notes: hu15G7 VL G30H, Y32H, W93H; human Fc
B15: MYT8414 (antibody, V domains shown)
VH: B4 VH
VL: B4 VL with Y32H, H96G
notes: hu15G7 VL Y32H; human Fc
B16: MYT8419 (antibody, V domains shown)
VH: B4 VH
VL: B4 VL with G30H, Y92H, H96G
notes: hu15G7 VL G30H, Y92H; human Fc
B17: MYT8422 (antibody, V domains shown)
VH: B4 VH
VL: B4 VL with Y32H, Y92H, H96G
notes: hu15G7 VL Y32H, Y92H; human Fc
B18: MYT8430 (antibody, V domains shown)
VH: B4 VH
VL: B4 VL with G30H, Y32H
notes: hu15G7 VL G30H, Y32H, G96H; human Fc
B19: MYT8435 (antibody, V domains shown)
VH: B4 VH
VL: B4 VL with Y32H, Y92H
notes: hu15G7 VL Y32H, Y92H, G96H; human Fc
B20: MYT8421 (antibody, V domains shown)
VH: B4 VH
VL: B4 VL with G30H
notes: hu15G7 VL G30H, G96H; human Fc
B21: MYT8433 (antibody, V domains shown)
VH: B4 VH
VL: B4 VL with G30H, W93H
notes: hu15G7 VL G30H, W93H, G96H; human Fc
B22: MYT8434 (antibody, V domains shown)
VH: B4 VH
VL: B4 VL with Y32H, Y92H, W93H, H96G
notes: hu15G7 VL Y32H, Y92H, W93H; human Fc
B23: MYT8424 (antibody, V domains shown)
VH: B4 VH
VL: B4 VL with Y32H
notes: hu15G7 VL Y32H, G96H; human Fc

target: T1, LRRC15 on the surface of LRRC15+ cells …; assay: cell-based or functional assay

Binder	Internalization in SAOS-2 cells (10 nM, 24 hours), FOB = fold over background (IgG control)	Internalization in SAOS-2 cells (10 nM, 24 hours), FOS = fold over samrotamab
B1	3.16 fold over background (IgG control)	1.33 fold over samrotamab
B2	3.23 fold over background (IgG control)	1.37 fold over samrotamab
B3	2.01 fold over background (IgG control)	0.62 fold over samrotamab
B4	2.68 fold over background (IgG control)	1.04 fold over samrotamab
B5	2.62 fold over background (IgG control)	1 fold over samrotamab

target: T2, Human LRRC15 Protein, His Tag (Acro …); assay: BLI; dissociation pH 7.4 black, pH 5.4 grey [D00010 FIG. 1H]
Source text: For each individual plot, antigen binding proteins were captured on anti-human Fc biosensors and associated with LRRC15 at pH 7.4. Dissociation was at pH 7.4 (black) or pH 5.4 (grey). Major X-axis ticks=100 seconds, with left dashed vertical line=0 seconds. Major Y-axis ticks=0.5 nm and octet plots are shown MYT5712 and MYT6080-MYT6121.
Multiple LRRC15-binding monoclonal antibodies have been described in the literature and can be used as a template for engineering pH-dependent binding. We selected discovery RabMAb clone 15G7 (rabbit VH SEQ ID NO: 378, rabbit VL SEQ ID NO: 451; humanized VH SEQ ID NO: 382, humanized VL SEQ ID NO: 455) as a LRRC15-binding monoclonal antibody for pH-engineering via histidine scanning. […] To generate pH-dependent sequence variants, individual amino acid residues within the heavy chain CDRs were systematically substituted with a histidine (or alanine if H was already present in a given position; e.g., MYT6099), one at a time (rabbit, MYT6080-6121). Desirable mutations were transferred to a humanized framework (humanized, MYT 8387-8411). After allowing for four days of protein expression, cell culture supernatants were collected, quantified by SDS-PAGE analysis, and the pH dependence of the variant was evaluated using biolayer interferometry (BLI) on an Octet RED 96e instrument. Briefly, cell culture supernatants were diluted based on qualitative expression level of the variant determined by visual examination of SDS-PAGE gels, 5 μL of cell culture supernatant was diluted into 195 μL of 1×PBST, pH 7.4 for high expressors, 25 μL of cell culture supernatant was diluted into 175 μL of 1×PBST, pH 7.4 for medium expressors and 100 μL of cell culture supernatant was diluted into 100 μL of 1×PBST, pH 7.4 for low expressors for loading onto the sensor tips.

Binder	binding result
B6	binds
B7	binds
B8	binds
B9	binds
B10	binds
B11	no binding (tested: 50 nM LRRC15)
B12	binds
B13	binds
B14	no binding (tested: 50 nM LRRC15)
B15	binds
B16	binds
B17	binds
B18	binds
B19	no binding (tested: 50 nM LRRC15)
B20	binds
B21	binds
B22	no binding (tested: 50 nM LRRC15)
B23	binds

target: T1, LRRC15 on the surface of LRRC15+ cells …; assay: cell-based or functional assay; remark: another data set of the same source

Binder	Internalization in U87MG cells (10 nM, 24 hours), FOB = fold over background (IgG control)	Internalization in U87MG cells (10 nM, 24 hours), FOS = fold over samrotamab
B1	3.58 fold over background (IgG control)	3.01 fold over samrotamab
B2	3.05 fold over background (IgG control)	2.4 fold over samrotamab
B3	2.07 fold over background (IgG control)	1.24 fold over samrotamab
B4	2.76 fold over background (IgG control)	2.06 fold over samrotamab
B5	2.25 fold over background (IgG control)	1.45 fold over samrotamab
